# Molecular target: NOD mouse SIRPα-Fc fusion protein (mouse (NOD strain)) (UniProt P97797)
# Assay: competitive ELISA
row,fold improvement in affinity against parent 29-AM3-35 [fold],Binder
1,2,"SIRP29-AM4-1 Fab (Fab, V domains shown) VH: EVQLVESGGGLVQPGGSLRLSCAASGFNISYYFIHWVRQAPGKGLEWVASVYSSFGYTYYADSVKGRFTISADTSKNTAYLQMNSLRAEDTAVYYCARFTFPGAMDGFFGAYLGSLDYWGQGTLVTVSS VL: DIQMTQSPSSLSASVGDRVTITCRASQSVSSAVAWYQQKPGKAPKLLIYSASSLYSGVPSRFSGSRSGTDFTLTISSLQPEDFATYYCQQAVNWVGALVTFGQGTKVEIK"
2,2,"SIRP29-AM4-5 Fab (Fab, V domains shown) VH: EVQLVESGGGLVQPGGSLRLSCAASGFNISYYFIHWVRQAPGKGLEWVASVYSSFGYTYYADSVKGRFTISADTSKNTAYLQMNSLRAEDTAVYYCARFTFPGLFDGFFGAYLGSLDYWGQGTLVTVSS VL: DIQMTQSPSSLSASVGDRVTITCRASQSVSSAVAWYQQKPGKAPKLLIYSASSLYSGVPSRFSGSRSGTDFTLTISSLQPEDFATYYCQQAVNWVGALVTFGQGTKVEIK"
